Measurements from patent publication US20130005646A1 (Novo Nordisk, published 2013).
Starred links: 1 amine or outer side, 2 acyl side, 3 side chain; linkers in the order of their positions; H or OH if unused. Positions of bridges follow the written chain, without caps; N, C: chain ends. *: point of attachment. C20 diacid = O=C(O)CCCCCCCCCCCCCCCCCCC(=O)*; C18 diacid = O=C(O)CCCCCCCCCCCCCCCCC(=O)*; γGlu = O=C(O)[C@H](CCC(=O)[*:2])N[*:1]

T1: rat calcitonin (a) receptor (rat, UniProt P32214 25-516)
T1 sequence (looked up): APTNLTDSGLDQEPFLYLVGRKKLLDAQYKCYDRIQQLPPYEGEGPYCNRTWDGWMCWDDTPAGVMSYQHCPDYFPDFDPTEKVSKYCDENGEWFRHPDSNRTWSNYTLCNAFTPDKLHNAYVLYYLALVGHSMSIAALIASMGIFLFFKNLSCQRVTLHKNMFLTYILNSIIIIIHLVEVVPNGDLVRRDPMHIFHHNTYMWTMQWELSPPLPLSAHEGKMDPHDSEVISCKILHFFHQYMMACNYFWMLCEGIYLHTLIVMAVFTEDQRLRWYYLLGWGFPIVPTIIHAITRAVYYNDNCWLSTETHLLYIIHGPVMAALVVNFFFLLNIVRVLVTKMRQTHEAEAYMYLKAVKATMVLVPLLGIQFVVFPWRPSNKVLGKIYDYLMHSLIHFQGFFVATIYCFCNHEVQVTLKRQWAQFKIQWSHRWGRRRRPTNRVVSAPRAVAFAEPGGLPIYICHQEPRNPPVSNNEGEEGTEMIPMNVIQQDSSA

T2: human amylin 3(a) receptor (human calcitonin receptor + RAMP-3) (human, UniProt P30988 25-474; O60896 24-148)
T2 sequence (looked up) 1: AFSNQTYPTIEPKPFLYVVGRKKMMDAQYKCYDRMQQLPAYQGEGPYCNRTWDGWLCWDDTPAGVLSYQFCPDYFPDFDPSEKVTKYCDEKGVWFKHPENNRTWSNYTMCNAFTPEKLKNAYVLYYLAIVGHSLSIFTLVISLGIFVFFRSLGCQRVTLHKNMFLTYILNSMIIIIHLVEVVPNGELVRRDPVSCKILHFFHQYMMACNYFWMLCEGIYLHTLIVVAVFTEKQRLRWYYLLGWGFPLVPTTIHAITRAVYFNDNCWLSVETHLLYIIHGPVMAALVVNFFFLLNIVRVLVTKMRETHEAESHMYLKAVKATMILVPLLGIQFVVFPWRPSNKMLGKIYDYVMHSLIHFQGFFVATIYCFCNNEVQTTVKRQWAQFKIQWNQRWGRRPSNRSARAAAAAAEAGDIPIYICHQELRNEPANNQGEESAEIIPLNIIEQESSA
T2 sequence (looked up) 2: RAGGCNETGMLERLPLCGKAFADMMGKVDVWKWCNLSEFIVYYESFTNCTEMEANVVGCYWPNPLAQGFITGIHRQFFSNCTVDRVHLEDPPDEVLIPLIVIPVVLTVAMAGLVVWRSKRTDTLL

T3: rat amylin 3(a) receptor (rat calcitonin(a) receptor + rat RAMP3) (rat, UniProt P32214 25-516; Q9JJ73 23-147)
T3 sequence (looked up) 1: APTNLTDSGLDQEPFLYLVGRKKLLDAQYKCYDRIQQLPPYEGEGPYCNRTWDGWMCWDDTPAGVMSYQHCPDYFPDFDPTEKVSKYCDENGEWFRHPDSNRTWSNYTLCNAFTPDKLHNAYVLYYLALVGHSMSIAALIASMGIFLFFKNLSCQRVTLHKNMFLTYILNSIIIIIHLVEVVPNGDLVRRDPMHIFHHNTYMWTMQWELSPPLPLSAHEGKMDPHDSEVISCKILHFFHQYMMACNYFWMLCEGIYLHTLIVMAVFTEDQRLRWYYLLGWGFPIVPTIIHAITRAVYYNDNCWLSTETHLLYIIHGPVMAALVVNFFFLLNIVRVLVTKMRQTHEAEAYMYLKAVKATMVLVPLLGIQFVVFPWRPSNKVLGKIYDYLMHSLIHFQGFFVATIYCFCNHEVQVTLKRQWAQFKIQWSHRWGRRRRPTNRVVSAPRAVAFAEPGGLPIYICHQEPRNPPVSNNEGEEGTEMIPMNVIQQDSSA
T3 sequence (looked up) 2: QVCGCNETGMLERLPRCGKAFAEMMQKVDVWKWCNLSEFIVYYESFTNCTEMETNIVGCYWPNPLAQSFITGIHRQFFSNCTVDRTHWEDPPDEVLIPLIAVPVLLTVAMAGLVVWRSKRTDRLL

T4: human calcitonin (a) receptor (human, UniProt P30988 25-474)
T4 sequence (looked up): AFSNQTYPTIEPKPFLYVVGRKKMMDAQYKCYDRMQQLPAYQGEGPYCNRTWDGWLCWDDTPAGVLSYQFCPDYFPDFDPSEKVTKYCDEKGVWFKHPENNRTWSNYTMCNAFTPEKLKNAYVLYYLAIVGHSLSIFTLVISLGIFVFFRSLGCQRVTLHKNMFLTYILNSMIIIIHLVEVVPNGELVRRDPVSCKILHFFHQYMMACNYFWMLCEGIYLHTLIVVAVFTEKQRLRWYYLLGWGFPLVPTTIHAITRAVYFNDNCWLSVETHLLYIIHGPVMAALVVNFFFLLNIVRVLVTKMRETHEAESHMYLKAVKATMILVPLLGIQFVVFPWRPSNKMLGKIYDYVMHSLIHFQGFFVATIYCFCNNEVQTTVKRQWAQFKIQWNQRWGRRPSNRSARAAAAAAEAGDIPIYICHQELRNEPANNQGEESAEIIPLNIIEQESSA


Experiments:
Experiment in all cases: cell-based or functional assay
[1] = target: T1, rat calcitonin (a) receptor
[2] = target: T2, human amylin 3(a) receptor (human …)
[3] = target: T3, rat amylin 3(a) receptor (rat …)
[4] = target: T4, human calcitonin (a) receptor

CTa receptor rat EC50 [1] [nM]	Amylin receptor human EC50 [2] [nM]	Amylin receptor rat EC50 [3] [nM]	CTa receptor human EC50 [4] [nM]	Binder
2.23	0.117	0.063	0.606	{C20 diacid-γGlu}-EKCNTATCATQRLAEFLRHSSNNFGPILPPTNVGSHTY-NH2 (disulfide 3-8; SMILES CC[C@H](C)[C@H](NC(=O)[C@@H]1CCCN1C(=O)CNC(=O)[C@H](Cc1ccccc1)NC(=O)[C@H](CC(N)=O)NC(=O)[C@H](CC(N)=O)NC(=O)[C@H](CO)NC(=O)[C@H](CO)NC(=O)[C@H](Cc1c[nH]cn1)NC(=O)[C@H](CCCNC(=N)N)NC(=O)[C@H](CC(C)C)NC(=O)[C@H](Cc1ccccc1)NC(=O)[C@H](CCC(=O)O)NC(=O)[C@H](C)NC(=O)[C@H](CC(C)C)NC(=O)[C@H](CCCNC(=N)N)NC(=O)[C@H](CCC(N)=O)NC(=O)[C@@H](NC(=O)[C@H](C)NC(=O)[C@@H]1CSSC[C@H](NC(=O)[C@H](CCCCN)NC(=O)[C@H](CCC(=O)O)NC(=O)CC[C@H](NC(=O)CCCCCCCCCCCCCCCCCCC(=O)O)C(=O)O)C(=O)N[C@@H](CC(N)=O)C(=O)N[C@@H]([C@@H](C)O)C(=O)N[C@@H](C)C(=O)N[C@@H]([C@@H](C)O)C(=O)N1)[C@@H](C)O)C(=O)N[C@@H](CC(C)C)C(=O)N1CCC[C@H]1C(=O)N1CCC[C@H]1C(=O)N[C@H](C(=O)N[C@@H](CC(N)=O)C(=O)N[C@H](C(=O)NCC(=O)N[C@@H](CO)C(=O)N[C@@H](Cc1c[nH]cn1)C(=O)N[C@H](C(=O)N[C@@H](Cc1ccc(O)cc1)C(N)=O)[C@@H](C)O)C(C)C)[C@@H](C)O) [N-alpha-[(S)-4-Carboxy-4-(19-carboxynonadecanoylamino)butyryl]-Glu-[Glu14,Arg17,His35]-pramlintide]
0.673	0.152	0.262	0.163	{C20 diacid-γGlu}-KCNTATCATQRLAEFLHHSSNNFGPILPPTNVGSHTY-NH2 (disulfide 2-7; SMILES CC[C@H](C)[C@H](NC(=O)[C@@H]1CCCN1C(=O)CNC(=O)[C@H](Cc1ccccc1)NC(=O)[C@H](CC(N)=O)NC(=O)[C@H](CC(N)=O)NC(=O)[C@H](CO)NC(=O)[C@H](CO)NC(=O)[C@H](Cc1c[nH]cn1)NC(=O)[C@H](Cc1c[nH]cn1)NC(=O)[C@H](CC(C)C)NC(=O)[C@H](Cc1ccccc1)NC(=O)[C@H](CCC(=O)O)NC(=O)[C@H](C)NC(=O)[C@H](CC(C)C)NC(=O)[C@H](CCCNC(=N)N)NC(=O)[C@H](CCC(N)=O)NC(=O)[C@@H](NC(=O)[C@H](C)NC(=O)[C@@H]1CSSC[C@H](NC(=O)[C@H](CCCCN)NC(=O)CC[C@H](NC(=O)CCCCCCCCCCCCCCCCCCC(=O)O)C(=O)O)C(=O)N[C@@H](CC(N)=O)C(=O)N[C@@H]([C@@H](C)O)C(=O)N[C@@H](C)C(=O)N[C@@H]([C@@H](C)O)C(=O)N1)[C@@H](C)O)C(=O)N[C@@H](CC(C)C)C(=O)N1CCC[C@H]1C(=O)N1CCC[C@H]1C(=O)N[C@H](C(=O)N[C@@H](CC(N)=O)C(=O)N[C@H](C(=O)NCC(=O)N[C@@H](CO)C(=O)N[C@@H](Cc1c[nH]cn1)C(=O)N[C@H](C(=O)N[C@@H](Cc1ccc(O)cc1)C(N)=O)[C@@H](C)O)C(C)C)[C@@H](C)O) [N-alpha-[(S)-4-Carboxy-4-(19-carboxynonadecanoylamino)butyryl]-[Glu14,His17,His35]-pramlintide]
2.84	0.111	0.511	0.387	{C20 diacid-γGlu}-KCNTATCATQRLAEFLRHSSNNFGPILPPTNVGSHTY-NH2 (disulfide 2-7; SMILES CC[C@H](C)[C@H](NC(=O)[C@@H]1CCCN1C(=O)CNC(=O)[C@H](Cc1ccccc1)NC(=O)[C@H](CC(N)=O)NC(=O)[C@H](CC(N)=O)NC(=O)[C@H](CO)NC(=O)[C@H](CO)NC(=O)[C@H](Cc1c[nH]cn1)NC(=O)[C@H](CCCNC(=N)N)NC(=O)[C@H](CC(C)C)NC(=O)[C@H](Cc1ccccc1)NC(=O)[C@H](CCC(=O)O)NC(=O)[C@H](C)NC(=O)[C@H](CC(C)C)NC(=O)[C@H](CCCNC(=N)N)NC(=O)[C@H](CCC(N)=O)NC(=O)[C@@H](NC(=O)[C@H](C)NC(=O)[C@@H]1CSSC[C@H](NC(=O)[C@H](CCCCN)NC(=O)CC[C@H](NC(=O)CCCCCCCCCCCCCCCCCCC(=O)O)C(=O)O)C(=O)N[C@@H](CC(N)=O)C(=O)N[C@@H]([C@@H](C)O)C(=O)N[C@@H](C)C(=O)N[C@@H]([C@@H](C)O)C(=O)N1)[C@@H](C)O)C(=O)N[C@@H](CC(C)C)C(=O)N1CCC[C@H]1C(=O)N1CCC[C@H]1C(=O)N[C@H](C(=O)N[C@@H](CC(N)=O)C(=O)N[C@H](C(=O)NCC(=O)N[C@@H](CO)C(=O)N[C@@H](Cc1c[nH]cn1)C(=O)N[C@H](C(=O)N[C@@H](Cc1ccc(O)cc1)C(N)=O)[C@@H](C)O)C(C)C)[C@@H](C)O) [N-alpha-[(S)-4-Carboxy-4-(19-carboxynonadecanoylamino)butyryl]-[Glu14,Arg17,His35]-pramlintide]
0.375	0.0425	0.015	0.112	{C18 diacid-γGlu}-HCNTATCATQRLAEFLHHSSNNFGPILPPTNVGSNTY-NH2 (disulfide 2-7; not fully specified; printed as N-alpha-[(S)-4-Carboxy-4-(17-carboxyheptadecanoylamino)butyryl]-[His1,Glu14,His17]-pramlintide) [N-alpha-[(S)-4-Carboxy-4-(17-carboxyheptadecanoylamino)butyryl]-[His1,Glu14,His17]-pramlintide]
